“Also recorded” adds a separate entry of the source.
Experiments:
PDACC = PDACC growth with anti-RNLS antibodies, WST-1; assay type: cell-based, human; conditions: 72 hrs
Method: FIG. 25A through FIG. 25E are a series of charts and images showing that inhibition of RNLS signaling is cytotoxic to cancer cells in vitro and in vivo. FIG. 25A is a chart showing relative cell viability following transient transfection of Panc1 cells using a RNLS-specific siRNA, or a non-specific control siRNA, and cell viability assayed 96 h later using the WST-1 reagent; n=6, ** indicates p<0.001. FIG. 25B is a chart showing relative cell viability when cells were treated with indicated antibodies for 72 hrs and cell viability determined using WST-1; m28-RNLS and m37-RNLS: monoclonal antibodies raised against RNLS peptide RP220, ab31291: Abcam polyclonal antibody raised against a partial sequence of RP-220; n=6, * indicates p<0.005. […] FIG. 25D is a chart showing tumor volume increase after athymic nude mice received subcutaneous injection of Panc1 cells transduced with RNLS shRNA (sh-RNLS) or control (sh-Control); tumor volume measured every […] for up to 30 days, n=6 each; * indicates p<0.05. FIG. 25E is chart showing tumor volume increase after nude mice were xenografted with BxPC3; tumor volume measured prior to treatment every 3-4 days with 2 mg/kg of either rabbit IgG as a negative control or with m28-RNLS, n=10, * indicates p<0.05.

BxPC3 xenografted tumors = assay: BxPC3 pancreatic xenograft in athymic nude mice; assay type: in vivo, mouse
Method: Immunohistochemistry was performed as described previously (Guo et al., 2012 Cancer Science. 103(8):1474-80). Briefly tumor tissues were formalin-fixed, paraffin-embedded and cut into 5-μm sections on glass slides. The slides were de-paraffinized and hydrated, followed by antigen retrieval in a pressure cooker containing 10 mM sodium citrate, pH6 buffer. The sections were blocked in 3% hydrogen peroxide for 30 min and 2.5% normal horse serum in PBS/0.1% Tween20 for 1 h followed by incubation with primary antibody and isotype control IgG overnight at 4° C. […]
Xenograft tumors were established by subcutaneous injection of BxPC3 cells (2×10^6 in 100 μl of PBS, pH 7.6). […] Tumor size was measured with digital calipers and volume was calculated according to the formula (length×width)×π/2. […] These animals received no further treatments, and tumor size and volume were measured for up to 30 days.
At the end of the study, the mice were sacrificed, the tumors were excised and immediately snap-frozen in liquid nitrogen and stored at −80° C. […] Sections were examined by light microscopy and the apoptosis index was determined by counting >1000 cells in 5 randomly selected high-power fields (×200 magnification).

STAT3 = STAT3 phosphorylation in Panc1 cells by western blot; assay type: cell-based, human; conditions: antibody treatment for up to 4 days; listed as m28-RNLS
Source text: FIG. 27A through FIG. 27E are a series of images and charts showing the interaction between RNLS and STAT3, and the mechanistic model of inhibition by m28-RNLS. FIG. 27A is an image showing activation of STAT3 by RNLS in Panc1 cells; Panc1 cells in culture treated with either BSA or RNLS, and STAT3 phosphorylation assessed by western blot; p-Ser^727-STAT3: phosphorylation at serine 727, p-Y^705-STAT3: phosphorylation at tyrosine 705; representative study. FIG. 27B is a chart depicting the quantification of STAT3 phosphorylation with RNLS; signals normalized to total STAT3; n=3, *=P<0.05. […] FIG. 27D is a chart showing the quantification of STAT3 phosphorylation with m28-RNLS; signals normalized to GAPDH loading control; n=3, *=P<0.05. FIG. 27E depicts the proposed mechanistic model for antitumor activity of m28-RNLS.

Panc1 cells = assay: FACS apoptosis and cell cycle analysis of Panc1 cells; assay type: cell-based, human; conditions: 30 μg/ml
Method: FIG. 26A through FIG. 26E are a series of images and charts showing that inhibition of RNLS signaling induces apoptosis and cell cycle arrest. […] FIG. 26B is a chart depicting FACS analysis of Panc1 cells in culture treated with either m28-RNLS (30 μg/ml) or 100 μM etoposide (positive control) for 4 days; n=3, * indicates p<0.05. FIG. 26C is an image showing Panc1 cells treated with polyclonal ab31291 or with goat IgG as a negative control, and cells lysates probed for p38 and Bax activation by western blot. […] FIG. 26E is a chart showing the effect of m28-RNLS on cell cycle of Panc1 cells determined by FACS analysis; green curve: no treatment, purple curve: rabbit IgG, red curve: m28-RNLS 30 μg/ml.
For cell cycle analysis, cultured cells were dissociated using 10 mM EDTA, fixed with ice-cold 70% ethanol, digested with RNAse A, and stained with propidium iodide. Propidium staining was detected using a BD FACSCalibur flow cytometer (BD Biosciences, San Jose, Calif., USA), and analyzed using CellQuest software.
Apoptosis was detected and quantified as previously done (Guo et al., 2012 Cancer Science. 103(8):1474-80). […] At least 20,000 events were collected on a BD FACSCalibur flow cytometer (BD Biosciences, San Jose, Calif., USA) and analyzed using CellQuest software.

B1: 1D-28-4: rabbit anti-renalase monoclonal raised against peptide RP-220 (antigen 1D); heavy chain SEQ ID NO:9, light chain SEQ ID NO:10 (antibody)
heavy: METGLRWLLLVAVLKGVQCQSVEESGGRLVTPGTPLTLTCTVSGFSLSSFAVGWVRQAPGKGLEYIGIISSVGITRYASWAAGRFTISKTSTTVDLKITSPTTEDTATYFCARYGYSGDVNRLDLWGQGTLVTVSSGQPKAPSVFPLAPCCGDTPSSTVTLGCLVKGYLPEPVTVTWNSGTLTNGVRTFPSVRQSSGLYSLSSVVSVTSSSQPVTCNVAHPATNTKVDKTVAPSTCSKPTCPPPELLGGPSVFIFPPKPKDTLMISRTPEVTCVVVDVSQDDPEVQFTWYINNEQVRTARPPLREQQFNSTIRVVSTLPIAHQDWLRGKEFKCKVHNKALPAPIEKTISKARGQPLEPKVYTMGPPREELSSRSVSLTCMINGFYPSDISVEWEKNGKAEDNYKTTPAVLDSDGSYFLYSKLSVPTSEWQRGDVFTCSVMHEALHNHYTQKSISRSPGK
light: MDTRAPTQLLGLLLLWLPGATFAQVLTQTASPVSAAVGGTVTINCQASQSVYDNNNLAWYQQKPGQPPKQLIYGASTLASGVSSRFKGSGSGTQFTLTISGVQCDDAATYYCLGEFSCSSADCFAFGGGTEVVVKGDPVAPTVLIFPPSADLVATGTVTIVCVANKYFPDVTVTWEVDGTTQTTGIENSKTPQNSADCTYNLSSTLTLTSTQYNSHKEYTCKVTQGTTSVVQSFNRGDC
modifications: oryctolagus cuniculus
In the case of B1, the PDACC growth (PDACC) is reported as “inhibitory effects”, the p21 positive cells (BxPC3 xenografted tumors; IHC) is reported as 178.1±11.4 positive cells/high power field and the “decrease in expression of Ki67 vs IgG” value (BxPC3 xenografted tumors; mouse, in vivo) is reported as 2.5 fold. The “p-Y705-STAT3 in Panc1” value (STAT3) was “long-lasting and sustained decrease; also recorded: inhibits STAT3 phosphorylation”, the “cell cycle of Panc1 cells” value (Panc1 cells) was “pre-G2 cell cycle arrest” and the “apoptosis of Panc1 cells” value (Panc1 cells; 4 days) was “caused apoptosis”.
